Measured values published in patent publication US20160159885A1.

Tests used:
pseudolysin = pseudolysin (UniProt P14756); assay: cell-based or functional assay
[1] = target: thermolysin (Bacillus thermoproteolyticus) (UniProt P00800); assay: cell-based or functional assay
Chain of UniProt P00800 (P00800 233-548 limits assumed): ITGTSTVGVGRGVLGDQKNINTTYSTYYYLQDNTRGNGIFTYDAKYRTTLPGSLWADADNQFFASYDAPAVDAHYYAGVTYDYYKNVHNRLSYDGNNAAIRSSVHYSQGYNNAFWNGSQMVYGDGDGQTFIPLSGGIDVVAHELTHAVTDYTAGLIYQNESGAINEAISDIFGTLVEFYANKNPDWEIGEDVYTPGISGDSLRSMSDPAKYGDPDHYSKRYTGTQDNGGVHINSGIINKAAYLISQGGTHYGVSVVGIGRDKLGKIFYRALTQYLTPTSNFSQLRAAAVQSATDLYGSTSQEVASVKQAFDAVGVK

Chain of UniProt P14756 (P14756 198-498 limits assumed): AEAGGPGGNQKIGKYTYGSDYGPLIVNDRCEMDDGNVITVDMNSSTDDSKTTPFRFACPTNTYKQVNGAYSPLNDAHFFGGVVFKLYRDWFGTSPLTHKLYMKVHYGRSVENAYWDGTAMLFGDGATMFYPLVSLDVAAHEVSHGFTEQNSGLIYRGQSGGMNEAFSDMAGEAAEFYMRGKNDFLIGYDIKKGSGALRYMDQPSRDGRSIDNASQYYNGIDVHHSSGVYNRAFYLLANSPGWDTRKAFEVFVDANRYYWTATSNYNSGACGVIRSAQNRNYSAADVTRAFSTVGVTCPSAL

wtIMPIα (wild-type insect metalloproteinase inhibitor IMPIα) (from UniProt P82176 20-88)
22.2 nM: IC50 wt PLN; column Pos35 InV (pseudolysin) | IC50 wt PLN; column Pos36 InY (pseudolysin) | IC50 wt PLN; column Pos37 NnQ (pseudolysin) | IC50 wt PLN; column Pos38 InQ (pseudolysin) | IC50 wt PLN; wt (avg), Pos37 block (pseudolysin)
12.7 nM: IC50 wt TLN; column Pos37 NnC [1] | IC50 wt TLN; column Pos37 NnV [1] | IC50 wt TLN; column Pos37 NnW [1] | IC50 wt TLN; column Pos39 RnG [1]
21.8 nM: IC50 wt PLN; column Pos35 InA (pseudolysin) | IC50 wt PLN; column Pos37 NnG (pseudolysin) | IC50 wt PLN; column Pos39 RnV (pseudolysin) | IC50 wt PLN; wt (avg), Pos38 block (pseudolysin)
21.9 nM: IC50 wt PLN; column Pos35 InF (pseudolysin) | IC50 wt PLN; column Pos35 InL (pseudolysin) | IC50 wt PLN; column Pos35 InM (pseudolysin) | IC50 wt PLN; column Pos35 InY (pseudolysin) | IC50 wt PLN; column Pos36 InQ (pseudolysin) | IC50 wt PLN; column Pos36 InT (pseudolysin) | IC50 wt PLN; column Pos37 NnA (pseudolysin) | IC50 wt PLN; column Pos37 NnE (pseudolysin) | IC50 wt PLN; column Pos39 RnT (pseudolysin) | IC50 wt PLN; wt (avg), Pos36 block (pseudolysin)
12 nM: IC50 wt TLN; column Pos37 NnP [1]
21.5 nM: IC50 wt PLN; column Pos37 NnS (pseudolysin) | IC50 wt PLN; column Pos37 NnW (pseudolysin) | IC50 wt PLN; column Pos37 NnY (pseudolysin) | IC50 wt PLN; column Pos38 InV (pseudolysin)
21.1 nM: IC50 wt PLN; column Pos38 InF (pseudolysin) | IC50 wt PLN; column Pos38 InW (pseudolysin) | IC50 wt PLN; column Pos38 InY (pseudolysin)
21.6 nM: IC50 wt PLN; column Pos36 InE (pseudolysin) | IC50 wt PLN; column Pos36 InG (pseudolysin)
22.6 nM: IC50 wt PLN; column Pos37 NnD (pseudolysin)
20.5 nM: IC50 wt PLN; column Pos39 RnF (pseudolysin)
20.8 nM: IC50 wt PLN; column Pos37 NnL (pseudolysin) | IC50 wt PLN; column Pos37 NnP (pseudolysin)
22.8 nM: IC50 wt PLN; column Pos38 InG (pseudolysin)
12.4 nM: IC50 wt TLN; column Pos36 InA [1] | IC50 wt TLN; column Pos36 InH [1] | IC50 wt TLN; column Pos36 InM [1] | IC50 wt TLN; column Pos36 InT [1] | IC50 wt TLN; column Pos38 InW [1] | IC50 wt TLN; column Pos39 RnL [1] | IC50 wt TLN; column Pos39 RnW [1] | IC50 wt TLN; wt (avg), Pos37 block [1]
12.5 nM: IC50 wt TLN; column Pos36 InD [1] | IC50 wt TLN; column Pos36 InE [1] | IC50 wt TLN; column Pos36 InK [1] | IC50 wt TLN; column Pos36 InW [1] | IC50 wt TLN; column Pos37 NnS [1] | IC50 wt TLN; column Pos37 NnY [1] | IC50 wt TLN; column Pos38 InG [1] | IC50 wt TLN; column Pos38 InH [1] | IC50 wt TLN; column Pos38 InM [1] | IC50 wt TLN; column Pos39 RnA [1] | IC50 wt TLN; column Pos39 RnF [1] | IC50 wt TLN; column Pos39 RnI [1] | IC50 wt TLN; column Pos39 RnK [1] | IC50 wt TLN; column Pos39 RnV [1] | IC50 wt TLN; wt (avg), Pos36 block [1] | IC50 wt TLN; wt (avg), Pos38 block [1] | IC50 wt TLN; wt (avg), Pos39 block [1]
22 nM: IC50 wt PLN; column Pos36 InA (pseudolysin) | IC50 wt PLN; column Pos36 InH (pseudolysin) | IC50 wt PLN; column Pos36 InK (pseudolysin) | IC50 wt PLN; column Pos36 InM (pseudolysin) | IC50 wt PLN; column Pos39 RnK (pseudolysin) | IC50 wt PLN; wt (avg), Pos35 block (pseudolysin)
22.3 nM: IC50 wt PLN; column Pos36 InF (pseudolysin) | IC50 wt PLN; column Pos36 InR (pseudolysin)
20.9 nM: IC50 wt PLN; column Pos36 InD (pseudolysin)
12.8 nM: IC50 wt TLN; column Pos37 NnH [1]
30.8 nM: IC50 wt PLN; column Pos37 NnM (pseudolysin)
20.7 nM: IC50 wt PLN; column Pos37 NnC (pseudolysin)
11.7 nM: IC50 wt TLN; column Pos37 NnM [1]
11.1 nM: IC50 wt TLN; column Pos37 NnL [1]
21.4 nM: IC50 wt PLN; column Pos38 InM (pseudolysin) | IC50 wt PLN; wt (avg), Pos39 block (pseudolysin)
20.1 nM: IC50 wt PLN; column Pos39 RnL (pseudolysin)
12.6 nM: IC50 wt TLN; column Pos35 InA [1] | IC50 wt TLN; column Pos35 InF [1] | IC50 wt TLN; column Pos35 InL [1] | IC50 wt TLN; column Pos35 InM [1] | IC50 wt TLN; column Pos35 InV [1] | IC50 wt TLN; column Pos35 InW [1] | IC50 wt TLN; column Pos35 InY [1] | IC50 wt TLN; column Pos36 InF [1] | IC50 wt TLN; column Pos36 InG [1] | IC50 wt TLN; column Pos36 InQ [1] | IC50 wt TLN; column Pos36 InR [1] | IC50 wt TLN; column Pos36 InV [1] | IC50 wt TLN; column Pos36 InY [1] | IC50 wt TLN; column Pos37 NnA [1] | IC50 wt TLN; column Pos37 NnE [1] | IC50 wt TLN; column Pos37 NnG [1] | IC50 wt TLN; column Pos37 NnQ [1] | IC50 wt TLN; column Pos38 InF [1] | IC50 wt TLN; column Pos38 InL [1] | IC50 wt TLN; column Pos38 InQ [1] | IC50 wt TLN; column Pos38 InV [1] | IC50 wt TLN; column Pos38 InY [1] | IC50 wt TLN; column Pos39 RnM [1] | IC50 wt TLN; column Pos39 RnQ [1] | IC50 wt TLN; wt (avg), Pos35 block [1]
22.1 nM: IC50 wt PLN; column Pos35 InW (pseudolysin) | IC50 wt PLN; column Pos36 InV (pseudolysin) | IC50 wt PLN; column Pos36 InW (pseudolysin) | IC50 wt PLN; column Pos39 RnA (pseudolysin) | IC50 wt PLN; column Pos39 RnM (pseudolysin) | IC50 wt PLN; column Pos39 RnQ (pseudolysin)
23.1 nM: IC50 wt PLN; column Pos38 InH (pseudolysin)
20.3 nM: IC50 wt PLN; column Pos39 RnG (pseudolysin)
19.9 nM: IC50 wt PLN; column Pos39 RnW (pseudolysin)
12.1 nM: IC50 wt TLN; column Pos37 NnD [1]
21.7 nM: IC50 wt PLN; column Pos38 InL (pseudolysin)
22.5 nM: IC50 wt PLN; column Pos39 RnY (pseudolysin)
21.2 nM: IC50 wt PLN; column Pos37 NnH (pseudolysin) | IC50 wt PLN; column Pos37 NnV (pseudolysin) | IC50 wt PLN; column Pos39 RnI (pseudolysin)
